# According to patent US20240287481A1, “POLYMERASES FOR EFFICIENT INCORPORATION OF NUCLEOTIDES WITH 3'-PHOSPHATE AND OTHER 3'-TERMINATORS” (MGI Tech Co., Ltd., priority 2021, published 2024):
# B1: 18B10: rabbit monoclonal dATP-3P antibody, SEQ ID NO: 39 and 40 (protein)
# chain 1: METGLRWLLLVAVLKGVQCQSVEESGGRLVTPGTPLTLTCTVSGIDLSSYAMGWVRQAPGKGLEWIGMISRRGTSYYASWARGRFTISKTSTTVDLKITSPTTEETATYFCARATYDDYTDLNLWGQGTLVTVSSGQPKAPSVFPLAPCCGDTPSSTVTLGCLVKGYLPEPVTVTWNSGTLTNGVRTFPSVRQSSGLYSLSSVVSVTSSSQPVTCNVAHPATNTKVDKTVAPSTCSKPMCPPPELPGGPSVFIFPPKPKDTLMISRTPEVTCVVVDVSQDDPEVQFTWYINNEQVRTARPPLREQQFNSTIRVVSTLPIAHQDWLRGKEFKCKVHNKALPAPIEKTISKARGQPLEPKVYTMGPPREELSSRSVSLTCMINGFYPSDISVEWEKNGKAEDNYKTTPTVLDSDGSYFLYSKLSVPTSEWQRGDVFTCSVMHEALHNHYTQKSISRSPGK
# chain 2: MDTRAPTQLLGLLLLWLPGATFAQVLTQTPSSVSAAVGGTVTINCQSSQSVYNNNLLSWYQQKPGQPPKLLIYKTSSLASGVPSRFSGSGSGTQFTLTISGVQCDDAATYYCLGGYYSGSGWYSTFGGGTEVVVKGDPVAPTVLIFPPSADLVATGTVTIVCVANKYFPDVTVTWEVDGTTQTTGIENSKTPQNSADCTYNLSSTLTLTSTQYNSHKEYTCKVTQGTTSVVQSFNRGDC
# modifications: dATP-3P
# B2: 12D6: rabbit monoclonal dTTP-3P antibody, SEQ ID NO: 51 and 52 (protein)
# chain 1: METGLRWLLLVAVLKGVQCQSLEESGGRLVTPGTPLTLTCTVSGIDLSSYTITWVRQAPGKGLEWIGYIYVHDGATYYANWAKGRFTISRTSSTTVDLKMTSLTTEDTATYFCASGGGTTYYRIWGPGTLVTVSSGQPKAPSVFPLAPCCGDTPSSTVTLGCLVKGYLPEPVTVTWNSGTLTNGVRTFPSVRQSSGLYSLSSVVSVTSSSQPVTCNVAHPATNTKVDKTVAPSTCSKPMCPPPELPGGPSVFIFPPKPKDTLMISRTPEVTCVVVDVSQDDPEVQFTWYINNEQVRTARPPLREQQFNSTIRVVSTLPIAHQDWLRGKEFKCKVHNKALPAPIEKTISKARGQPLEPKVYTMGPPREELSSRSVSLTCMINGFYPSDISVEWEKNGKAEDNYKTTPTVLDSDGSYFLYSKLSVPTSEWQRGDVFTCSVMHEALHNHYTQKSISRSPGK
# chain 2: MDTRAPTQLLGLLLLWLPGATFAQLLTQTPPSVSAPVGGTVTINCQSSQSVYGHNRLSWYQQKPGQPPKLLIYYTSTLASGVPSRFKGSGSGTQFTLTISDLECDDAATYYCAGGYNGNIYAFGGGTEVVVKGDPVAPTVLIFPPAADQVATGTVTIVCVANKYFPDVTVTWEVDGTTQTTGIENSKTPQNSADCTYNLSSTLTLTSTQYNSHKEYTCKVTQGTTSVVQSFNRGDC
# modifications: dTTP-3P
# B3: Taq 475: Taq polymerase variant E520G, K540I, L616A (protein, UniProt P19821 1-832, looked up, variant E520G K540I L616A)
# DNA polymerase I, thermostable: MRGMLPLFEPKGRVLLVDGHHLAYRTFHALKGLTTSRGEPVQAVYGFAKSLLKALKEDGDAVIVVFDAKAPSFRHEAYGGYKAGRAPTPEDFPRQLALIKELVDLLGLARLEVPGYEADDVLASLAKKAEKEGYEVRILTADKDLYQLLSDRIHVLHPEGYLITPAWLWEKYGLRPDQWADYRALTGDESDNLPGVKGIGEKTARKLLEEWGSLEALLKNLDRLKPAIREKILAHMDDLKLSWDLAKVRTDLPLEVDFAKRREPDRERLRAFLERLEFGSLLHEFGLLESPKALEEAPWPPPEGAFVGFVLSRKEPMWADLLALAAARGGRVHRAPEPYKALRDLKEARGLLAKDLSVLALREGLGLPPGDDPMLLAYLLDPSNTTPEGVARRYGGEWTEEAGERAALSERLFANLWGRLEGEERLLWLYREVERPLSAVLAHMEATGVRLDVAYLRALSLEVAEEIARLEAEVFRLAGHPFNLNSRDQLERVLFDELGLPAIGKTEKTGKRSTSAAVLGALREAHPIVEKILQYRELTILKSTYIDPLPDLIHPRTGRLHTRFNQTATATGRLSSSDPNLQNIPVRTPLGQRIRRAFIAEEGWLLVALDYSQIEARVLAHLSGDENLIRVFQEGRDIHTETASWMFGVPREAVDPLMRRAAKTINFGVLYGMSAHRLSQELAIPYEEAQAFIERYFQSFPKVRAWIEKTLEEGRRRGYVETLFGRRRYVPDLEARVKSVREAAERMAFNMPVQGTAADLMKLAMVKLFPRLEEMGARMLLQVHDELVLEAPKERAEAVARLAKEVMEGVYPLAVPLEVEVGIGEDWLSAKE
# B4: 2F7: rabbit monoclonal dCTP-3P antibody, SEQ ID NO: 43 and 44 (protein)
# chain 1: METGLRWLLLVAVLKGVQCQSVEESGGRLVTPGTPLTLTCTVSGFSLSNYAIIWVRQAPGEGLEYIGFISRTGSINYANWAKGRFTISKTSTTVDLKITSPTTEDTATYFCARTDYFANGDIWGPGTLVTVSSGQPKAPSVFPLAPCCGDTPSSTVTLGCLVKGYLPEPVTVTWNSGTLTNGVRTFPSVRQSSGLYSLSSVVSVTSSSQPVTCNVAHPATNTKVDKTVAPSTCSKPMCPPPELPGGPSVFIFPPKPKDTLMISRTPEVTCVVVDVSQDDPEVQFTWYINNEQVRTARPPLREQQFNSTIRVVSTLPIAHQDWLRGKEFKCKVHNKALPAPIEKTISKARGQPLEPKVYTMGPPREELSSRSVSLTCMINGFYPSDISVEWEKNGKAEDNYKTTPTVLDSDGSYFLYSKLSVPTSEWQRGDVFTCSVMHEALHNHYTQKSISRSPGK
# chain 2: MDTRVPTQLLGLLLLWLPGARCADVVMTQTPASVSEPVGGTVTIKCQASQSINSWLSWYQQKPGQPPKLLIYAASTLASGVPSRFKGSGSGTQFTLTISDLECADAATYFCQSYDMIVNHGAPFGGGTGVVVSGDPVAPTVLIFPPAADQVATGTVTIVCVANKYFPDVTVTWEVDGTTQTTGIENSKTPQNSADCTYNLSSTLTLTSTQYNSHKEYTCKVTQGTTSVVQSFNRGDC
# modifications: dCTP-3P
# Experiments:
# [1] = test system: 3′ phosphate-extended primer; test: 3′ phosphate primer detection with antibodies in a microtiter plate (fluorescence); assay type: binding; details: for ratio to no primer: intensity primer / no primer; for fluorescence intensity: 5 min binding, wash at 60° C.
# Description: 3′ phosphate blocked nucleotides were incorporated onto the terminal position of a primer and then reacted with unlabeled or labeled antibodies. After a short reaction time of less than 5 minutes, excess antibodies were washed from the reaction well and bound antibodies detected. In the case of unlabeled antibodies, a secondary fluorescently labeled antibody or nanobody was used to bind to the primary IgG before fluorescence detection. In the case of directly labeled primary antibodies, excess un-bound antibodies were washed away and fluorescence in the reaction well measured with a fluorescence plate reader.
# Under some binding and wash conditions some non-specific binding of antibody was occurring on the target. […] The interaction of magnesium with the phosphates of the DNA phosphodiester bonds may be suppressing the ability of the antibodies to react with internal phosphates but still allowing recognition of the terminal phosphate. Specific binding in the presence of magnesium was 10-27 fold higher than without primer.
# [2] = test system: 3′-phosphate / 2′-phosphate nucleotides; details: cited from earlier work
# [3] = no primer (non-specific binding), 20 mM Mg buffer
# [4] = no primer (non-specific binding), magnesium free buffer
# [5] = primer extended with 3′ phosphate nucleotide, 20 mM Mg buffer
# [6] = primer extended with 3′ phosphate nucleotide, magnesium free buffer
Molecule,ratio to no primer ([1]; 20 mM Mg buffer),ratio to no primer ([1]; magnesium free buffer),"fluorescence intensity [1, 3]","fluorescence intensity [1, 4]","fluorescence intensity [1, 5]","fluorescence intensity [1, 6]","incorporation of 3′-phosphate nucleotides, in words [2]"
B1,27.1,3.0,8820,88385,238771,265039,–
B2,20.6,1.7,13278,206733,273502,345210,–
B3,–,–,–,–,–,–,does not incorporate 3′-phosphate nucleotides
B4,16.2,8.8,11357,19124,183669,167623,–
